Experimental data reported in IntAct's records for PubMed 21633354.

B1: Condensin complex subunit 2 (Schizosaccharomyces pombe (strain ATCC 38366 / 972)), Q9Y7R3 (parent)
chain: MKRASLGGHAPVSLPSLNDDALEKKRAKENSRKQRELRRSSALHSITPRRESLNNSSPFNSSHQVPVLSNFEEWIKLATDNKINSTNTWNFALIDYFHDMSLLRDGEDINFQKASCTLDGCVKIYTSRIDSVATETGKLLSGLANDSKVLQQTEEGEDAENDDEDLQKKKERKRAQRSVKTLVKDFESIRAKKFELECSFDPLFKKMCADFDEDGAKGLLMNHLCVDQHGRIVFDSSDTVIKDLENKDVEAESQEAVVAAPIESHDTEMTNVHDNISRETLNGIYKCYFTDIDQLTICPSLQGFEFDSKGNLDVSLLKSLSDEVNMITTTSLVDNTMEKTDADAASLSSDSDGEEGHIVHALEEMAYDEENPYVDVVPKAMDESENPDFGVDTEVNMADGSTMNENYSIISTAAANGVYEYFDKSMKKNWAGPEHWRIQALRKNINNASTVFNSSNTAESSDNVSRSLSSTERKKRRELDNAIDFLQEVDVEALFTPATSSLKLPKSHWKRHNRCLLPDDYQYDSKRLLQLFLKPKMSVLPNADGEGQLQLNKALDDENDLDGIQPHGFDSDGSDNVDEGIPPYGFGDSDSPKQTPLLTPPSSSGFGDNLLLTARLAKPDMLNYAKRAKKVDVRVLKEKLWKCLDLENTIKENSINSHIEGSEMESEETNMPVKSFFSTVNQLEETYEKKELKDISTSFAFICVLHLANEHNLELTSNEDFSDVFIRPGPNLTTLEALENDV

Variants of: B1
Conditions: with h2a2_schpo hta2, P04910

effect of a mutation on the interaction | Variant
decreasing interaction | S5A;S41A;S52A

Variants of: B1
Conditions: with h2az_schpo pht1, P48003
Chain of h2az_schpo pht1, P48003 (P48003 whole entry): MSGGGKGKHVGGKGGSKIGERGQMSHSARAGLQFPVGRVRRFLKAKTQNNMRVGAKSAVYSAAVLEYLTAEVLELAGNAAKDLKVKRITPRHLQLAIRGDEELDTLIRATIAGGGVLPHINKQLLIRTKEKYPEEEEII

effect of a mutation on the interaction | Variant
decreasing interaction | S5A;S41A;S52A
